The target of assay [1] is T1, wtNgR (Mus musculus, UniProt Q99PI8).
T1 construct: wtNgR encodes residues 1 to 473 of mNgR; vector secretion signal (pSecTag2) (N); 6xHis (C); expressed in transfected cells; host or cells: COS-7
T1 sequence (Q99PI8 27-473): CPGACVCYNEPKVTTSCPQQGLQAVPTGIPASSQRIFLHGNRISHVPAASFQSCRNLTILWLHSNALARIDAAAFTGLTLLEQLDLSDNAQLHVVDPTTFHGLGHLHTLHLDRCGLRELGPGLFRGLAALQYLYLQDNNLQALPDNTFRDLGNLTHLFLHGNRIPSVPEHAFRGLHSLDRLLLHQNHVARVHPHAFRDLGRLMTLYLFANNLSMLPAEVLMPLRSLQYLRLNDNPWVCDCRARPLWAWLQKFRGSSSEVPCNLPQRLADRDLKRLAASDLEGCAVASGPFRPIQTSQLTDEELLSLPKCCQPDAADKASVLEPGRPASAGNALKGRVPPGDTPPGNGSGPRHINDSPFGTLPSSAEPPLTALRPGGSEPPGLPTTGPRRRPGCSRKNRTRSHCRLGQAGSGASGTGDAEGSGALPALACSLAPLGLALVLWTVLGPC
Put plainly: AP-NgR binding to COS-7 cells transfected with wtNgR. The method, then: (§1) A vector encoding AP-hNogo-A (1055-1120) was constructed as described in Fournier et al., supra). The vector encoding AP-NgR was made by ligating the mNgR coding sequence from residues 27-451 in frame with the signal sequence-6× His—placental alkaline phosphatase (AP) sequence of the vector known as pAP-6 (Nakamura et al., Neuron 2: 1093-1100, 1988).
(§2) NgR was tested for the ability to self-associate. For this study, mNgR [hereinafter, wtNgR or WT] and mNgR deletion mutants (see FIG. 18A) were transfected into COS-7 cells. Forty-eight hours after the transfection, the transfected COS-7 cells were washed with HBH. Cells were then incubated for 2 hours at 23° C. with a conditioned medium containing […] diluted in HBH. AP-fusion protein was detected as previously described for AP-Sema3A (Takahashi et al., Nature Neurosci. 1:487-493, 1998). Similar to the AP-Nogo binding profile, AP-NgR bound to wtNgR and NgRΔCT (FIG. 23). Nogo treatment had little, if any, effect on the NgR-NgR interaction (data not shown). […] The same NgR domains are required for GST-hNogo-A (1055-1120) binding and NgR oligomerization

For assay [2], the target named is T2, NgRΔCT (Mus musculus, UniProt Q99PI8).
T2 construct: encodes residues 26 to 305 and 443 to473 of mNgR; vector secretion signal (pSecTag2) (N); 6xHis (C); expressed in transfected cells; host or cells: COS-7
T2 sequence (Q99PI8 with tags, fused parts or gaps): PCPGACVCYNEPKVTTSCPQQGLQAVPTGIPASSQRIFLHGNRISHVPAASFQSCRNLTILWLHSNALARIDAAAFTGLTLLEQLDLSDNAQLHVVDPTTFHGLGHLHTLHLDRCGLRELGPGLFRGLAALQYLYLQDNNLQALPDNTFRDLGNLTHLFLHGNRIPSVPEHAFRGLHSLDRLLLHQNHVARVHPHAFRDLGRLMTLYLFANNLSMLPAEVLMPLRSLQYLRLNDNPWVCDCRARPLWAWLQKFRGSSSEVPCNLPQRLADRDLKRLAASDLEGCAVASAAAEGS
Put plainly: AP-NgR binding to COS-7 cells transfected with NgRΔCT. How it is done:
as §1, §2

The test system of assay [3] is NgR deletion mutants. As to the kind of experiment: AP-NgR binding to COS-7 cells transfected with other NgR deletion mutants. Details: species or system mouse. How it is done:
as §1, §2

B1: AP-NgR: mNgR residues 27-451 fused to signal sequence-6x His-placental alkaline phosphatase (protein)
chain: HHHHHHIIPVEEENPDFWNREAAEALGAAKKLQPAQTAAKNLIIFLGDGMGVSTVTAARILKGQKKDKLGPEIPLAMDRFPYVALSKTYNVDKHVPDSGATATAYLCGVKGNFQTIGLSAAARFNQCNTTRGNEVISVMNRAKKAGKSVGVVTTTRVQHASPAGTYAHTVNRNWYSDADVPASARQEGCQDIATQLISNMDIDVILGGGRKYMFRMGTPDPEYPDDYSQGGTRLDGKNLVQEWLAKRQGARYVWNRTELMQASLDPSVTHLMGLFEPGDMKYEIHRDSTLDPSLMEMTEAALRLLSRNPRGFFLFVEGGRIDHGHHESRAYRALTETIMFDDAIERAGQLTSEEDTLSLVTADHSHVFSFGGYPLRGSSIFGLAPGKARDRKAYTVLLYGNGPGYVLKDGARPDVTESESGSPEYRQQSAVPLDEETHAGEDVAVFARGPQAHLVHGVQEQTFIAHVMAFAACLEPYTACDLAPPAGTTDAAHPGCPGACVCYNEPKVTTSCPQQGLQAVPTGIPASSQRIFLHGNRISHVPAASFQSCRNLTILWLHSNALARIDAAAFTGLTLLEQLDLSDNAQLHVVDPTTFHGLGHLHTLHLDRCGLRELGPGLFRGLAALQYLYLQDNNLQALPDNTFRDLGNLTHLFLHGNRIPSVPEHAFRGLHSLDRLLLHQNHVARVHPHAFRDLGRLMTLYLFANNLSMLPAEVLMPLRSLQYLRLNDNPWVCDCRARPLWAWLQKFRGSSSEVPCNLPQRLADRDLKRLAASDLEGCAVASGPFRPIQTSQLTDEELLSLPKCCQPDAADKASVLEPGRPASAGNALKGRVPPGDTPPGNGSGPRHINDSPFGTLPSSAEPPLTALRPGGSEPPGLPTTGPRRRPGCSRKNRTRSHCRLGQAGSGASGTGDAEGSGALP
As for B1, the “binding (in words)” value in assay [1] is “bound”; in assay [2] it was “bound”; in assay [3], “did not bind”.

(Values after patent US8394929B2, “Nogo receptor-mediated blockade of axonal growth” (Yale University, priority 2000, dated 2013).)
